Source: patent US20250074996A1 (Innovent, published 2025)
Where two headings read alike, the source gives them in different places.

B1: TS-F2-3 (ch7F5D4/SP34.24/38456) (antibody, human IgG1, kappa, lambda, L234A L235A)
heavy 1: not shown
light 1: DIQMTQTTSSLSASLGDRVTISCRASQDIRNYLNWYQQRPDGTIKLLIYYTSRLHSGVPSRFSGSGSGTDYSLTISNLDQEDFATYFCQQGNMLPWTFGGGTSLEIKRTVAAPSVFIFPPSDEQLKSGTASVVCLLNNFYPREAKVQWKVDNALQSGNSQESVTEQDSKDSTYSLSSTLTLSKADYEKHKVYACEVTHQGLSSPVTKSFNRGEC
heavy 2: not shown
light 2: QAVVTQEPSLTVSPGGTVTLTCRSSTGAVTTSNYANWVQQKPGQAPRGLIGGTNKRAPGVPARFSGSLLGDKAALTLLGAQPEDEAEYYCALWYSNLWVFGQGTKLTVLGQPKAAPSVTLFPPSSEELQANKATLVCLISDFYPGAVTVAWKADSSPVKAGVETTTPSKQSNNKYAASSYLSLTPEQWKSHRSYSCQVTHEGSTVEKTVAPTECS
B2: BCMA×CD3 bispecific antibody (38456/hzsp34.24) (bispecific antibody, V domains shown)
VH 1: EVQLVESGGGLVQPGRSLRLSCAASGFTFGDYAIHWVRQAPGKGLEWVSGISWDSSSIAYADSVKGRFTISRDNAKNSLYLQMNSLRAEDTAVYYCAKDSPVRDSFGSIAFDIWGQGTMVTVSS
VL 1: EIVLTQSPATLSLSPGERATLSCRASQSVSSYLAWYQQKPGQAPRLLIYDASKRATGIPARFSGSGSGTDFTLTISSLEPEDFAVYYCQQASALPLTFGGGTKVEIK
VH 2: EVQLVESGGGLVQPGGSLKLSCAASGFTFNTYAMNWVRQASGKGLEWVGRIRSKYNNYATYYADSVKDRFTISRDDSKSTLYLQMNSLKTEDTAVYYCARHGNFGQSYVSWFAYWGQGTTVTVSS
VL 2: QAVVTQEPSLTVSPGGTVTLTCRSSTGAVTTSNYANWVQQKPGQAPRGLIGGTNKRAPGVPARFSGSLLGDKAALTLLGAQPEDEAEYYCALWYSNLWVFGQGTKLTVL
B3: TS-F6-1 (antibody, human IgG1, kappa, L234A L235A)
heavy: not shown
light: DIQMTQTTSSLSASLGDRVTISCRASQDIRNYLNWYQQRPDGTIKLLIYYTSRLHSGVPSRFSGSGSGTDYSLTISNLDQEDFATYFCQQGNMLPWTFGGGTSLEIKRTVAAPSVFIFPPSDEQLKSGTASVVCLLNNFYPREAKVQWKVDNALQSGNSQESVTEQDSKDSTYSLSSTLTLSKADYEKHKVYACEVTHQGLSSPVTKSFNRGECGGGGSGGGGSQAVVTQEPSLTVSPGGTVTLTCRSSTGAVTTSNYANWVQQKPGQAPRGLIGGTNKRAPGVPARFSGSLLGDKAALTLLGAQPEDEAEYYCALWYSNLWVFGCGTKLTVLGGGGSGGGGSGGGGSGGGGSEVQLVESGGGLVQPGGSLKLSCAASGFTFNTYAMNWVRQASGKCLEWVGRIRSKYNNYATYYADSVKDRFTISRDDSKSTLYLQMNSLKTEDTAVYYCARHGNFGQSYVSWFAYWGQGTTVTVSS
B4: TS-F6-2 (antibody, human IgG1, kappa, L234A L235A)
heavy: not shown
light: DIQMTQTTSSLSASLGDRVTISCRASQDIRNYLNWYQQRPDGTIKLLIYYTSRLHSGVPSRFSGSGSGTDYSLTISNLDQEDFATYFCQQGNMLPWTFGGGTSLEIKRTVAAPSVFIFPPSDEQLKSGTASVVCLLNNFYPREAKVQWKVDNALQSGNSQESVTEQDSKDSTYSLSSTLTLSKADYEKHKVYACEVTHQGLSSPVTKSFNRGECGGGGSGGGGSEVQLVESGGGLVQPGGSLKLSCAASGFTFNTYAMNWVRQASGKCLEWVGRIRSKYNNYATYYADSVKDRFTISRDDSKSTLYLQMNSLKTEDTAVYYCARHGNFGQSYVSWFAYWGQGTTVTVSSGGGGSGGGGSGGGGSGGGGSQAVVTQEPSLTVSPGGTVTLTCRSSTGAVTTSNYANWVQQKPGQAPRGLIGGTNKRAPGVPARFSGSLLGDKAALTLLGAQPEDEAEYYCALWYSNLWVFGCGTKLTVL

Assays:
[1] = molecular target: T1, CD3E on the surface of Jurkat-NFAT-Luc cells (UniProt P07766 23-207); assay: cell-based or functional assay
[2] = molecular target: T1, CD3E on the surface of Jurkat-NFAT-Luc …; assay: cell-based or functional assay; remark: listed apart in the source

T1 sequence (P07766 23-207): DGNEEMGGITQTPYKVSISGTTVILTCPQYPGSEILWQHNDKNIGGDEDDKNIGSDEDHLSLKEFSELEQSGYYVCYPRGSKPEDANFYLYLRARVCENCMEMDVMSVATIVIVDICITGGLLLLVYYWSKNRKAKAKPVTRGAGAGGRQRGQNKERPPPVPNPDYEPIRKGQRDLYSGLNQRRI

Binder | EC50 of Jurkat-NFAT-Luc luciferase activation; target cells huGPRC5D-GS-CHO [1] [pM] | EC50 of Jurkat-NFAT-Luc luciferase activation; tumor cells H929 [1] [pM] | EC50 of Jurkat-NFAT-Luc luciferase activation; tumor cells L363 [1] [pM] | EC50 of Jurkat-NFAT-Luc luciferase activation; tumor cells U266 [1] [pM] | EC50 of Jurkat-NFAT-Luc luciferase activation; tumor cells 8226 [2] [pM] | EC50 of Jurkat-NFAT-Luc luciferase activation; tumor cells H929 [2] [pM] | EC50 of Jurkat-NFAT-Luc luciferase activation; tumor cells L363 [2] [pM] | EC50 of Jurkat-NFAT-Luc luciferase activation; tumor cells U266 [2] [pM]
B1 | 1.45 | 5.47 | 2.86 | 47 |  |  |  | 
B2 |  |  |  |  | 4.82 | 59.6 | 36.6 | 11
B3 | 9.66 | 3790 | 77.1 | 366 |  |  |  | 
B4 |  | 2200 | 61.7 |  |  |  |  | 
